Results: patent publication US20160264649A1

Key:
Assay in all cases: cell-based or functional assay
[1] = target: HIV-1 Env of isolate MGRM-F1-023 (subtype F) (HIV-1)
[2] = target: HIV-1 Env of isolate 92WR020 (subtype A) (HIV-1)
[3] = target: HIV-1 Env of isolate MGRM-AE-006 (subtype AE) (HIV-1)
[4] = target: HIV-1 Env of isolate VLGCA1 (subtype A) (HIV-1)
[5] = target: HIV-1 Env of isolate MGRM-F1-008 (subtype F) (HIV-1)
[6] = target: HIV-1 Env of isolate MGRM-AE-008 (subtype AE) (HIV-1)
[7] = target: HIV-1 Env of isolate 92UG037 (subtype A) (HIV-1)
[8] = target: HIV-1 Env of isolate CMU02 (subtype AE) (HIV-1)
[9] = target: HIV-1 Env of isolate MGRM-D-026 (subtype D) (HIV-1)
[10] = target: HIV-1 Env of isolate MGRM-F1-021 (subtype F) (HIV-1)
[11] = target: HIV-1 Env of isolate MGRM-D-014 (subtype D) (HIV-1)
[12] = target: HIV-1 Env of isolate MGRM-AE-007 (subtype AE) (HIV-1)
[13] = target: HIV-1 Env of isolate 92TH021 (subtype AE) (HIV-1)
[14] = target: HIV-1 Env of isolate MGRM-D-022 (subtype D) (HIV-1)
[15] = target: HIV-1 Env of isolate MGRM-D-005 (subtype D) (HIV-1)
[16] = target: HIV-1 Env of isolate MGRM-F1-022 (subtype F) (HIV-1)
[17] = target: HIV-1 Env of isolate 93WR029 (subtype A) (HIV-1)
[18] = target: HIV-1 Env of isolate MGRM-F1-010 (subtype F) (HIV-1)
[19] = target: HIV-1 Env of isolate 92WR024 (subtype A) (HIV-1)
[20] = target: HIV-1 Env of isolate MGRM-D-019 (subtype D) (HIV-1)
[21] = target: HIV-1 Env of isolate MGRM-D-013 (subtype D) (HIV-1)
[22] = target: HIV-1 Env of isolate MGRM-D-018 (subtype D) (HIV-1)
[23] = target: HIV-1 Env of isolate 93UG077 (subtype A) (HIV-1)
[24] = target: HIV-1 Env of isolate 92UG031 (subtype A) (HIV-1)
[25] = target: HIV-1 Env of isolate MGRM-F1-015 (subtype F) (HIV-1)
[26] = target: HIV-1 Env of isolate MGRM-F1-014 (subtype F) (HIV-1)
[27] = target: HIV-1 Env of isolate MGRM-AE-001 (subtype AE) (HIV-1)
[28] = target: HIV-1 Env of isolate MGRM-D-008 (subtype D) (HIV-1)
[29] = target: HIV-1 Env of isolate MGRM-D-011 (subtype D) (HIV-1)
[30] = target: HIV-1 Env of isolate MGRM-F1-013 (subtype F) (HIV-1)
[31] = target: HIV-1 Env of isolate MGRM-D-004 (subtype D) (HIV-1)
[32] = target: HIV-1 Env of isolate MGRM-F1-018 (subtype F) (HIV-1)
[33] = target: HIV-1 Env of isolate 92WR009 (subtype A) (HIV-1)
[34] = target: HIV-1 Env of isolate 92UG114 (subtype D) (HIV-1)
[35] = target: HIV-1 Env of isolate MGRM-AE-004 (subtype AE) (HIV-1)
[36] = target: HIV-1 Env of isolate MGRM-D-020 (subtype D) (HIV-1)
[37] = target: HIV-1 Env of isolate MGRM-D-002 (subtype D) (HIV-1)
[38] = target: HIV-1 Env of isolate MGRM-D-028 (subtype D) (HIV-1)
[39] = target: HIV-1 Env of isolate MGRM-D-024 (subtype D) (HIV-1)
[40] = target: HIV-1 Env of isolate MGRM-F1-012 (subtype F) (HIV-1)
[41] = target: HIV-1 Env of isolate MGRM-F1-004 (subtype F) (HIV-1)
[42] = target: HIV-1 Env of isolate MGRM-F1-017 (subtype F) (HIV-1)
[43] = target: HIV-1 Env of isolate 94 KE 105 (subtype AC) (HIV-1)
[44] = target: HIV-1 Env of isolate MGRM-D-016 (subtype D) (HIV-1)
[45] = target: HIV-1 Env of isolate MGRM-AE-003 (subtype AE) (HIV-1)
[46] = target: HIV-1 Env of isolate MGRM-D-021 (subtype D) (HIV-1)
[47] = target: HIV-1 Env of isolate MGRM-D-029 (subtype D) (HIV-1)
[48] = target: HIV-1 Env of isolate MGRM-F1-016 (subtype F) (HIV-1)
[49] = target: HIV-1 Env of isolate 92WR021 (subtype A) (HIV-1)
[50] = target: HIV-1 Env of isolate MGRM-D-012 (subtype D) (HIV-1)
[51] = target: HIV-1 Env of isolate MGRM-F1-020 (subtype F) (HIV-1)
[52] = target: HIV-1 Env of isolate MGRM-F1-006 (subtype F) (HIV-1)
[53] = target: HIV-1 Env of isolate MGRM-AE-002 (subtype AE) (HIV-1)
[54] = target: HIV-1 Env of isolate MGRM-AE-005 (subtype AE) (HIV-1)
[55] = target: HIV-1 Env of isolate MGRM-D-001 (subtype D) (HIV-1)
[56] = target: HIV-1 Env of isolate MGRM-D-003 (subtype D) (HIV-1)
[57] = target: HIV-1 Env of isolate 92WR026 (subtype A) (HIV-1)
[58] = target: HIV-1 Env of isolate 94UG103 (subtype A) (HIV-1)

PGT-143 (4980_N08) (antibody), sequence (VH): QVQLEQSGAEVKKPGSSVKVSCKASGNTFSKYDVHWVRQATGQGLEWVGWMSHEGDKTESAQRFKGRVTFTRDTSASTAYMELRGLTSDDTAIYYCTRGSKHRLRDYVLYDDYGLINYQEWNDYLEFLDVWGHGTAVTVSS
PGT-143 (4980_N08) (antibody), sequence (VL): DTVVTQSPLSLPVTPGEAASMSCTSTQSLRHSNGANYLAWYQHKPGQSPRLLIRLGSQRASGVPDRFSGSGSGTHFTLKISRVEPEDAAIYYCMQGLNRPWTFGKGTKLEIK

PGT-143 (4980_N08) (antibody) showed an IC50 (pseudovirus neutralization) [1] of 0.972 µg/mL, an IC50 (pseudovirus neutralization) [2] of over 50 µg/mL and an IC50 (pseudovirus neutralization) [3] of over 50 µg/mL. It also gave an IC50 (pseudovirus neutralization) [4] of 17.4 µg/mL, an IC50 (pseudovirus neutralization) [5] of 0.189 µg/mL and an IC50 (pseudovirus neutralization) [6] of 0.135 µg/mL. It also gave an IC50 (pseudovirus neutralization) [7] of 0.854 µg/mL, an IC50 (pseudovirus neutralization) [8] of over 50 µg/mL and an IC50 (pseudovirus neutralization) [9] of 44.6 µg/mL. It also gave an IC50 (pseudovirus neutralization) [10] of over 50 µg/mL, an IC50 (pseudovirus neutralization) [11] of 0.009 µg/mL and an IC50 (pseudovirus neutralization) [12] of 13.6 µg/mL. The IC50 (pseudovirus neutralization) [13] was 0.003 µg/mL, the IC50 (pseudovirus neutralization) [14] was over 50 µg/mL and the IC50 (pseudovirus neutralization) [15] was 1.41 µg/mL. It also gave an IC50 (pseudovirus neutralization) [16] of 0.082 µg/mL, an IC50 (pseudovirus neutralization) [17] of 0.053 µg/mL and an IC50 (pseudovirus neutralization) [18] of over 50 µg/mL. For the same substance, the IC50 (pseudovirus neutralization) [19] was 0.122 µg/mL, the IC50 (pseudovirus neutralization) [20] was 0.277 µg/mL and the IC50 (pseudovirus neutralization) [21] was 0.386 µg/mL. For the same substance, the IC50 (pseudovirus neutralization) [22] was over 50 µg/mL, the IC50 (pseudovirus neutralization) [23] was over 50 µg/mL and the IC50 (pseudovirus neutralization) [24] was 0.095 µg/mL. For the same substance, the IC50 (pseudovirus neutralization) [25] was over 50 µg/mL, the IC50 (pseudovirus neutralization) [26] was 0.001 µg/mL and the IC50 (pseudovirus neutralization) [27] was over 50 µg/mL. The IC50 (pseudovirus neutralization) [28] was 0.153 µg/mL, the IC50 (pseudovirus neutralization) [29] was over 50 µg/mL and the IC50 (pseudovirus neutralization) [30] was 0.013 µg/mL. The IC50 (pseudovirus neutralization) [31] was over 50 µg/mL, the IC50 (pseudovirus neutralization) [32] was 0.701 µg/mL and the IC50 (pseudovirus neutralization) [33] was 0.01 µg/mL. For the same substance, the IC50 (pseudovirus neutralization) [34] was over 50 µg/mL, the IC50 (pseudovirus neutralization) [35] was 0.002 µg/mL and the IC50 (pseudovirus neutralization) [36] was over 50 µg/mL. It also gave an IC50 (pseudovirus neutralization) [37] of over 50 µg/mL, an IC50 (pseudovirus neutralization) [38] of over 50 µg/mL and an IC50 (pseudovirus neutralization) [39] of over 50 µg/mL. The IC50 (pseudovirus neutralization) [40] was over 50 µg/mL, the IC50 (pseudovirus neutralization) [41] was 0.036 µg/mL and the IC50 (pseudovirus neutralization) [42] was 26.3 µg/mL. For the same substance, the IC50 (pseudovirus neutralization) [43] was 0.368 µg/mL, the IC50 (pseudovirus neutralization) [44] was over 50 µg/mL and the IC50 (pseudovirus neutralization) [45] was over 50 µg/mL. It also gave an IC50 (pseudovirus neutralization) [46] of over 50 µg/mL, an IC50 (pseudovirus neutralization) [47] of 0.2 µg/mL and an IC50 (pseudovirus neutralization) [48] of over 50 µg/mL. The IC50 (pseudovirus neutralization) [49] was over 50 µg/mL, the IC50 (pseudovirus neutralization) [50] was over 50 µg/mL and the IC50 (pseudovirus neutralization) [51] was 0.98 µg/mL. It also gave an IC50 (pseudovirus neutralization) [52] of 12.3 µg/mL, an IC50 (pseudovirus neutralization) [53] of over 50 µg/mL and an IC50 (pseudovirus neutralization) [54] of over 50 µg/mL. For the same substance, the IC50 (pseudovirus neutralization) [55] was over 50 µg/mL, the IC50 (pseudovirus neutralization) [56] was over 50 µg/mL and the IC50 (pseudovirus neutralization) [57] was 5.36 µg/mL. For the same substance, the IC50 (pseudovirus neutralization) [58] was over 50 µg/mL.
